# Columns and labels:
# [1] = molecular target: human protein kinase A catalytic subunit alpha, cell-free expressed with C-terminal HSV epitope tag and polyhistidine tag (UniProt P17612)
# [2] = molecular target: human p53 oncoprotein (cellular tumor antigen p53), cell-free expressed from pETBlue-2 with C-terminal HSV epitope tag and polyhistidine tag (UniProt P04637)
# [3] = molecular target: human MDM2 (ubiquitin-protein ligase E3 MDM2), cell-free expressed with C-terminal HSV epitope tag and polyhistidine tag (UniProt Q00987)
# [4] = test system: Human casein kinase II (CK), cell-free expressed with C-terminal HSV epitope tag and polyhistidine tag
substance,measurement,setting,value
human recombinant Src pp60 tyrosine kinase (Invitrogen Corporation),"phosphorylation of photo-transferred protein on microarray, anti-phosphotyrosine (RC20) detection",[1],significant phosphorylation of CK and PKA
same,"phosphorylation of photo-transferred protein on microarray, anti-phosphotyrosine (RC20) detection",[2],p53 is not phosphorylated by either kinase
same,"phosphorylation of photo-transferred protein on microarray, anti-phosphotyrosine (RC20) detection",[3],Both kinases heavily phosphorylate the MDM protein
same,"phosphorylation of photo-transferred protein on microarray, anti-phosphotyrosine (RC20) detection",[4],significant phosphorylation of CK and PKA

# Source: patent US20180017550
